Eleven molecules from patent US20250152746A1, “BASE EDITING OF ANGPTL3 AND METHODS OF USING SAME FOR TREATMENT OF DISEASE” (Verve Therapeutics, Inc., priority 2020, published 2025) can be followed below.

In the oligonucleotide strings, read from the 5' end, every base follows the letter of its sugar. An asterisk marks phosphorothioate; unmarked linkages are phosphodiester. Other units and linkages are bracketed, terminal groups are in braces. A string of capitals states the bases alone. m = 2'-O-methyl; r = 2'-OH (RNA)

The test system of data set [1] is PCSK9 gene. Briefly: PCSK9 gRNA/SpCas9 editing in primary human hepatocytes (Tables 2, 4). In kind it is cell-based. The conditions noted are these: for % Editing, day 3 / % Editing, day 5: modified gRNA; for % Editing, day 3: day 3 post transfection; for % Editing, day 5: day 5 post transfection; for editing compared with minimally modified control gRNA GA009: SpCas9 mRNA MS002; for Human Primary Hepatocyte Editing % 100: 100 ng/RNA/mL; for Human Primary Hepatocyte Editing % 500: 500 ng/RNA/mL. The protocol: (§1) In set of experiments, PCSK9 gRNAs were co-transfected with an equivalent amount (1:1 ratio by weight) of in vitro transcribed commercially available SpCas9 mRNA MS002 purchased from TriLink Biotechnologies into primary human hepatocytes at 2500, 500, or 100 ng/RNA/mL and processed as described in detailed methods. Extracted genomic DNA was analyzed for gene editing at the target site with next-generation sequencing of PCR amplicons generated around the target sites. Samples were prepared using the Nextera XT DNA library preparation kit (Illumina) according to the manufacturer's protocol. Briefly, two rounds of PCR were performed first to amplify the region of interest and second to add DNA sequences required for next generation sequencing and sample identification to the initial product. The final amplicon was sequenced on the Illumina MiSeq instrument according to the manufacturer's protocol. A wide range of editing activities (Table 2) were observed. In a second set of experiments, ANGPTL3 gRNAs were co-transfected with an equivalent amount of in vitro transcribed SpCas9 mRNA (1:1 ratio by weight) into primary human hepatocytes and processed and analyzed similarly (Table 3).
PCSK9 gRNAs were co-transfected with an equivalent amount of in vitro transcribed SpCas9 mRNA MS002 (1:1 ratio by weight) into primary human hepatocytes and processed as described in detailed methods. A wide range of editing activities were observed (Table 4; ND=Not determined). The guides with the highest editing activity at five days post transfection were GA001, GA002, GA007, and GA008.
Human primary hepatocytes were transfected at 2500, 1250, 500, and 250 ng/test article/mL with SpCas9 mRNA MS002 and a gRNA targeting PCSK9 with modifications to the tracr. Genomic DNA was processed, sequenced, and analyzed as described in the detailed methods section. GA156 was transfected to serve as a positive control.
Plating, culturing, and transfection of primary hepatocytes. Primary human liver hepatocytes (PHH) and primary cynomolgus liver hepatocytes (PCH) from BioIVT were cultured per the manufacturer's protocol. Briefly, primary human hepatocytes and primary cyno hepatocytes were obtained as frozen aliquots from BioIVT. Four lots of primary human hepatocytes, each derived from a de-identified individual donor, were used for the experiments: STL (main donor) was used for all experiments, including screening experiments and off-target experiments; HLY, JLP, and TLY were used for off-target experiments. The HFG lot of primary cyno hepatocytes were used for experiments. Following the manufacturer's instructions, cells were thawed and rinsed prior to plating in 24-well plates that had been coated with bovine collagen overnight, with a density of approximate 350,000 cells/well in INVITROGRO hepatocyte medium supplemented with TORPEDO antibiotic mix (BioIVT). The cells were thawed and resuspended in hepatocyte thawing medium followed by centrifugation at 100 g for 10 min at 4° C. The supernatant was discarded, and the pelleted cells resuspended in hepatocyte plating medium. Each vial contains approximately 5 million cells that were used for plating one 24-well plate. Plated cells were allowed to settle and adhere for 4-6 h in a tissue culture incubator at 37° C. under 5% CO2 atmosphere. After incubation, cells were checked for monolayer formation. The incubating media were then replaced with fresh hepatocyte maintenance media (complete INVITROGRO medium obtained from BioIVT, the cell line provider). The cells thus became ready for transfection. Each of the gRNAs were co-transfected with an equivalent amount of in vitro transcribed ABE8.8 mRNA (1:1 ratio by molecular weight) into primary human hepatocytes via MessengerMax reagent (Lipofectamine), using various dilutions to assess for editing activity at different concentrations of test article. MessengerMAX from Thermo Fisher is used for transfection. […]

In data set [2] the test system is PCSK9 gene. As to the kind of experiment: PCSK9 gRNA/SpCas9 editing in primary cynomolgus hepatocytes (Tables 2, 22). Type of data set: cell-based, cynomolgus monkey. The conditions noted are these: SpCas9 mRNA MS002 1:1 by weight. The protocol: as §1
[…] Genomic DNA was processed, sequenced, and analyzed as described in the detailed methods section. GA266 was transfected independently twice to serve as two positive controls.
Plating, culturing, and transfection of primary hepatocytes. Primary human liver hepatocytes (PHH) and primary cynomolgus liver hepatocytes (PCH) from BioIVT were cultured per the manufacturer's protocol. Briefly, primary human hepatocytes and primary cyno hepatocytes were obtained as frozen aliquots from BioIVT. Four lots of primary human hepatocytes, each derived from a de-identified individual donor, were used for the experiments: STL (main donor) was used for all experiments, including screening experiments and off-target experiments; HLY, JLP, and TLY were used for off-target experiments. The HFG lot of primary cyno hepatocytes were used for experiments. Following the manufacturer's instructions, cells were thawed and rinsed prior to plating in 24-well plates that had been coated with bovine collagen overnight, with a density of approximate 350,000 cells/well in INVITROGRO hepatocyte medium supplemented with TORPEDO antibiotic mix (BioIVT). The cells were thawed and resuspended in hepatocyte thawing medium followed by centrifugation at 100 g for 10 min at 4° C. The supernatant was discarded, and the pelleted cells resuspended in hepatocyte plating medium. Each vial contains approximately 5 million cells that were used for plating one 24-well plate. Plated cells were allowed to settle and adhere for 4-6 h in a tissue culture incubator at 37° C. under 5% CO2 atmosphere. After incubation, cells were checked for monolayer formation. The incubating media were then replaced with fresh hepatocyte maintenance media (complete INVITROGRO medium obtained from BioIVT, the cell line provider). The cells thus became ready for transfection. Each of the gRNAs were co-transfected with an equivalent amount of in vitro transcribed ABE8.8 mRNA (1:1 ratio by molecular weight) into primary human hepatocytes via MessengerMax reagent (Lipofectamine), using various dilutions to assess for editing activity at different concentrations of test article. MessengerMAX from Thermo Fisher is used for transfection. Solution A: desired amount of guide RNA is mixed with 1:1 wt ratio of mRNA in OptiMEM. Solution B: MessengerMAX in OptiMEM. After mixing solutions A and B, the mixture was incubated at room temperature for 20 min. 60 μL of the incubated solution was added dropwise to each cell wells. For protospacer sequences that were a perfect match to the corresponding cynomolgous monkey PCSK9 or ANGPTL3 gene sequence, each gRNA was also co-transfected with an equivalent amount of ABE8.8 mRNA (1:1 ratio by molecular weight) into primary cynomolgous hepatocytes, and followed the same transfection protocol. […]

The mark [3] stands for this setting: SpCas9 mRNA MS002 1:1 by weight.

B1: GA004: PCSK9 gRNA, GA156 spacer with modifications to the tracrRNA sequence (nucleic acid)
guide: mG*mG*mU*rGrCrUrArGrCrCrUrUrGrCrGrUrUrCrCrGmGrUrUrUrUrArGmAmGmCmUmAmGmAmAmAmUmAmGmCmAmArGrUrUmArAmArAmUrAmAmGmGmCmUmArGrUmCmCrGrUrUrAmUmCrArAmCmUmUmGmAmAmAmAmAmGmUmGrGmCmAmCmCmGmAmGmUmCmGmGmUmGmCmUmUmUmUmU
With B1, in data set [1] (setting [3]), the “% Editing, day 3” value is recorded as 7% and the “% Editing, day 5” value is on record as 12%.

B2: GA008: structure-guided 2′-OMe heavy guide RNA (gRNA) design, PCSK9 (nucleic acid)
guide: mG*mG*mU*rGrCrUrArGrCrCrUrUrGrCrGrUrUrCrCrGmGrUrUrUrUrArGmAmGmCmUmAmGmAmAmAmUmAmGmCmAmArGrUrU*mArAmArAmUrAmAmGmGmCmUmArGrUmCmCrGrUrU*rAmUmCrArAmCmUmUmGmAmAmAmAmAmGmUmGrGmCmAmCmCmGmAmGmUmCmGmGmUmGmCmU*mU*mU*mU
For the molecule B2, the “editing compared with minimally modified control gRNA GA009” value in data set [1] was “improved editing”. In addition, in data set [1] (setting [3]), the “% Editing, day 3” value is 20% and the “% Editing, day 5” value worked out at 28%.

B3: GA005: PCSK9 gRNA, GA156 spacer with modifications to the tracrRNA sequence (nucleic acid)
guide: GGTGCTAGCCTTGCGTTCCGGTTTTAGAGCTAGAAATAGCAAGTTAAAATAAGGCTAGTCCGTTATCAACTTGAAAAAGTGGCACCGAGTCGGTGCTTTTT
modifications: chemistry not given here
On to B3, for which, in data set [1] (setting [3]), the “% Editing, day 3” value came out at 1% and the “% Editing, day 5” value turned out to be 15%.

B4: GA009: minimally modified control gRNA, PCSK9 (nucleic acid)
guide: mG*mG*mU*rGrCrUrArGrCrCrUrUrGrCrGrUrUrCrCrGrGrUrUrUrUrArGrArGrCrUrArGrArArArUrArGrCrArArGrUrUrArArArArUrArArGrGrCrUrArGrUrCrCrGrUrUrArUrCrArArCrUrUrGrArArArArArGrUrGrGrCrArCrCrGrArGrUrCrGrGrUrGrCrU*mU*mU*mU
Regarding B4, in data set [1] (setting [3]), the “% Editing, day 3” value turned out to be 4% and the “% Editing, day 5” value came out at 19%.

B5: GA226: PCSK9 gRNA; protospacer GGCTTTTCCGAATAAACTCC (SEQ ID NO: 220) (nucleic acid)
guide: GGCUUUUCCGAAUAAACUCCGUUUUAGAGCUAGAAAUAGCAAGUUAAAAUAAGGCUAGUCCGUUAUCAACUUGAAAAAGUGGCACCGAGUCGGUGCUUUU
modifications: sugars from the 5' end m3 r94 m3, linkages s3 o93 s3 (s phosphorothioate, o phosphodiester), T or U not given here
Consider B5, for which, in data set [1] (setting [3]), the “Human Primary Hepatocyte Editing % 100” value turned out to be 0.4% and the “Human Primary Hepatocyte Editing % 500” value came to 2.99%. In data set [1] (2500 ng/RNA/mL, SpCas9 mRNA MS002 1:1 by weight), the “Human Primary Hepatocyte Editing % 2500” value was 7.61%.

B6: GA006: PCSK9 gRNA, GA156 spacer with modifications to the tracrRNA sequence (nucleic acid)
guide: rG*rG*rU*rGrCrUrArGrCrCrUrUrGrCrGrUrUrCrCrGmGrUrUrUrUrArGmAmGmCmUmAmGmAmAmAmUmAmGmCmAmArGrUrUmArAmArAmUrAmAmGmGmCmUmArGrUmCmCrGrUrUrAmUmCrArAmCmUmUmGmAmAmAmAmAmGmUmGrGmCmAmCmCmGmAmGmUmCmGmGmUmGmCmU*mU*mU*mU
Take B6: the “% Editing, day 5” value in data set [1] (setting [3]) was 12%.

B7: GA003: PCSK9 gRNA, GA156 spacer with modifications to the tracrRNA sequence (nucleic acid)
guide: mG*mG*mU*rGrCrUrArGrCrCrUrUrGrCrGrUrUrCrCrGrGrUrUrUrU*rArGrAmGmCmUmAmGmAmAmAmUmAmGmCrArArGrUrU*rArArArArU*rArArGrGrCrU*rArGrUrCrCrGrUrU*rArUrC*rAmAmCmUmUmGmAmAmAmAmAmGmUmGmGmCmAmCmCmGmAmGmUmCmGmGmUmGmCmU*mU*mU*mU
Turning to B7, in data set [1] (setting [3]), the “% Editing, day 5” value stood at 7%.

B8: GA001: PCSK9 gRNA, GA156 spacer with modifications to the tracrRNA sequence (nucleic acid)
guide: rG*rG*rU*rGrCrUrArGrCrCrUrUrGrCrGrUrUrCrCrGrGrUrUrUrUrArGrAmGmCmUmAmGmAmAmAmUmAmGmCrArArGrUrUrArArArArUrArArGrGrCrUrArGrUrCrCrGrUrUrArUrCrAmAmCmUmUmGmAmAmAmAmAmGmUmGmGmCmAmCmCmGmAmGmUmCmGmGmUmGmCmU*mU*mU*mU
With B8, in data set [1] (setting [3]), the “% Editing, day 3” value was determined as 16% and the “% Editing, day 5” value was determined as 27%.

B9: GA007: structure-guided 2′-OMe heavy guide RNA (gRNA) design, PCSK9 (nucleic acid)
guide: mG*mG*mU*rGrCrUrArGrCrCrUrUrGrCrGrUrUrCrCrGmGrUrUrUrUrArGmAmGmCmUmAmGmAmAmAmUmAmGmCmAmArGrUrUmArAmArAmUrAmAmGmGmCmUmArGrUmCmCrGrUrUrAmUmCrArAmCmUmUmGmAmAmAmAmAmGmUmGrGmCmAmCmCmGmAmGmUmCmGmGmUmGmCmU*mU*mU*mU
As for B9, the “editing compared with minimally modified control gRNA GA009” value in data set [1] is on record as “improved editing”. Further, in data set [1] (setting [3]), the “% Editing, day 3” value turned out to be 30% and the “% Editing, day 5” value is given as 27%.

B10: GA002: PCSK9 gRNA, GA156 spacer with modifications to the tracrRNA sequence (nucleic acid)
guide: GGTGCTAGCCTTGCGTTCCGGTTTTAGAGCTAGAAATAGCAAGTTAAAATAAGGCTAGTCCGTTATCAACTTGAAAAAGTGGCACCGAGTCGGTGCTTTT
modifications: listed as RNA; modified_base 1: mod_base = OTHER; note = 2'-O-Methyl-guanosine phosphorothioate; modified_base 2: mod_base = OTHER; modified_base 3: mod_base = OTHER; note = 2'-O-Methyl-uridine phosphorothioate
Regarding B10, in data set [1] (setting [3]), the “% Editing, day 3” value came to 28% and the “% Editing, day 5” value was 23%.

B11: GA187: PCSK9 gRNA; protospacer CTCCTCGATGTAGTCGACAT (SEQ ID NO: 181) (nucleic acid)
guide: mC*mU*mC*rCrUrCrGrArUrGrUrArGrUrCrGrArCrArUrGrUrUrUrUrArGrArGrCrUrArGrArArArUrArGrCrArArGrUrUrArArArArUrArArGrGrCrUrArGrUrCrCrGrUrUrArUrCrArArCrUrUrGrArArArArArGrUrGrGrCrArCrCrGrArGrUrCrGrGrUrGrCrU*mU*mU*mU
As to B11, in data set [1] (setting [3]), the “Human Primary Hepatocyte Editing % 100” value was 2.44% and the “Human Primary Hepatocyte Editing % 500” value came to 6.47%. Besides, in data set [2] (100 ng/RNA/mL), the “Cyno Primary Hepatocyte Editing % 100” value was 3.77%. Also, the “Cyno Primary Hepatocyte Editing % 500” value in data set [2] (500 ng/RNA/mL) worked out at 12.30%. Moreover, the “Cyno Primary Hepatocyte Editing % 2500” value in data set [2] (2500 ng/RNA/mL) was determined as 29.24%.
